These results are taken from article PMC6713349, “Structural analysis of the recognition of the -35 promoter element by SigW from Bacillus subtilis”.

The target in this data set is T1, SigW sigma4 domain (σW4) (Bacillus subtilis 168, UniProt Q45585 126-187).
T1 sequence: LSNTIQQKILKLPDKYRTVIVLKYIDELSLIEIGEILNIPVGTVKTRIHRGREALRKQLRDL
In words: X-ray crystallography (3.1 Å); 1:1 complex, DNA mixed at 1.1:1; printed Kd 1.47e-8 M is computed from PISA ΔG, not measured, so not taken; Complex dialysed in 20 mM HEPES pH 7.5, 0.2 M NaCl, 5% glycerol; crystals from PEG1500 and isopropanol; temperature not stated. The note with it: protein: recombinant; tags: N-terminal 6xHis, removed with TEV protease; 5' overhang 1 nt at each end, 11 bp.

B1: -35W (SigW -35 promoter element) (dsDNA)
DNA 1: ATTGAAACCTTT
DNA 2: AAAAGGTTTCAA
Regarding B1, the binding result was “binds”.
